Assay: yeast display, Sf9 membrane polyspecificity reagent, FACS + sequencing; frameworks hold sequencing errors
How it was run: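 Synthetic nanobody libraries on Saccharomyces cerevisiae BJ5465 were galactose-induced for 36–48 hours, stained 1 hour at 4 °C with 10% biotinylated, detergent-solubilized Sf9 membrane reagent and enriched on streptavidin microbeads. FACS then separated cells into low and high (top ~1%) gates by anti-HA (expression) and streptavidin (reagent binding) fluorescence. Genes were colony-PCR amplified, MiSeq 2 × 250 sequenced and CDR-length filtered. A clone's polyreactivity label is that of its gate of origin.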

Row | Sequence | polyreactivity (PSR sort gate)
1 | QVQLVESGGGLVQAGGSLRLSCASSGYTFDYYTMGWYRQAPGKERELVARITASGGSTYYADSVKGRFTISRDNAKNTVYLQMNSLKPEDTSVYYCAKAWYRYSRFDYWGQGTQVTVSS | high polyreactivity
2 | QVQLVESGGGLVQAGGSLRLSCAASGRTFSSYAMGWYRQAPGKERELVARISSSGGRTSYADSVKGRFTISRDNAKNTVYLQMKSLKPEDTAVYYCAKTYHWLYDYWGQGTQVTVSS | high polyreactivity
3 | QVQLVESCGGLVQAGGSLRLSCAASGRTFGYYAMGWYRQAPGKEREFVAAITAGGGSTYYADSVKGRFTISRDNAKNTVYLQMNSLKPEDTAVYYCAKRDYWGQGTQVTVSS | high polyreactivity
4 | QVQLVESGGGLVQAGGSLRLSSAASGRTFYDYAMGWYRQAPGKERELVAAITYSGGSTFYADSVKGRFTISRDNAKNTVYLQMNSLTPEDTAVYYCAAEVLRLGGAAEYDYCGQGTQVTVSS | low polyreactivity
5 | QVQLVESGGGLVQAGGSLRLSCATSGFTFVYNAMGWYRQAPGKESELVAAINWSGGRTYYADSVKGRFTISRDNAKNTVYLQMNSLKPEDTAVYYCAAGYSPYKGSAGYYWGQGTQVTVSS | low polyreactivity
6 | QVQLVESGGGLVQAGGSLRLSCAASGRIFVIYAMGWYRQAPGKERELVAVISSDGSTYYADSVKGRFTISRDNAKNTVYLQMNSLKPEDTAVYYCAADRIGRYRPYIGWVVRSYYWGQGTQVTVSS | low polyreactivity
7 | QVQLVESGGGLVQAGGSLRLSCAASGFIFWYYAMGWYRHAPGKERELVAVISSGSSTHYADSVKGRFTISRDNAKNTVYLQMNSLKPEDTAVDYCAARIRTRYFTGYYYWGQGTQVSVSS | high polyreactivity
8 | QVQLVESGGGLVQAGGSLRLSCAASGRTFPPYAMGWYRQAPGKERELVAAISGSGASTYYADSVKGRFTISRDNAKNTVYLQMNSLKPEDTAVYYCARYRGYWGRYYGVDYGYWGQGTQVTVSS | high polyreactivity
9 | QVQLAESGGGLVQAGGSLRLSCSASGSTFVAYAMGWYRQAPGKERELVAAITRSGGSTYYADSVKGRFTISRDNAKNTVYLQMNSLKPEDTAVFYCAARHYRSRDGYWGQGTQVTVSS | high polyreactivity
10 | QVQLVESGGGLVQAGGSLRLSCAASGFIFGNYALGWYRQAPWKERELVAGISGTGGSTYYADSVKGRFTISRDNAKNTVYLQMNSLKPEDTAVYYCAARIFKRQSFDYWGQGTQVTVSS | high polyreactivity
11 | QVQLVESGGGLVQAGGSLRLSCAASGSIFLDYAMGWYRQAPGKERELVAAITSGGSTYYADSVKGRFTISRDNAKNTVYLQMNSLKPEDTAVYYCNDEYPQYKAGFYGYDYWGQGTQVTVSS | low polyreactivity
12 | QVQLVETGGGLVQAGGSLRLSCAASGGIFLVNDMGWYRPAPGKERELVAAISGSGGSTYYADSVKGRVTISRDNAKNTVYLQMNSLKPEDTAVYYCAAVGTHKAGGAYNYWGQGTQVTVSS | low polyreactivity
13 | QVQLVESGGGLVQAGGSLRLSCAASGRNFGYNAMGWYRQAPGKERELVAAITTSGGSTYYADSVKGRFTISRDNAKNTVYLQMNSLKPEDTAVYYCARDSLQVLYPYASDDSWGQGTQVTVSS | low polyreactivity
14 | QVQLVESGGGLVQAGGSLRLSCAASGRTFTYYGMGWYRQAPGKERELVAAISGGGDTNYADSVKGRFTISRDNAKNTVYLQMNSLKPEDTAGYYCAAKRRYYWDYWFYEYDYWGQGTQVTVSS | low polyreactivity
15 | QVQLVESWGGLVQAGGSLRLSCAASVSTFYNYAMGWYRQAHGKERELVAAISKSGGSTYYADSVKGRFTISRDNAKNTVYLQMNSLNPEDTAVYYCAARGVYRTRSGMGYWGQGTQVTVSS | high polyreactivity
16 | QVQLVESGGGLVQAGGSLRLSCAASGNTFYVYTMGWYRQAPGKERELVAAISSTGDRTYYADSVKGRFTISRDYAKNTVYLQMNSLKPEETAVYYCAARLYRGYRGYYYWGQGTQVTVSS | high polyreactivity
17 | QVQLVESGGGLVQAGGSLRLSCAASGSTFRAYAMGWYRQAPGKERELVAAISKRGGSTYYADSVKGRFTISRDNAKYTVYLQMNSLKPEDTAVYYCNAATRSPFDYWGQGTQVTVSS | high polyreactivity
18 | QVQLVESGGGLVQAGGSLRLSCAASGGIFAYYAMGWYRQAPGKERELVAAITSRGGRTYYADSVKGRFTISRDNAKNTVYLQMNSLKPEDTAVYYCNAERFWPWDYDYWGQGTQVTVSS | high polyreactivity
19 | QVHLVESGGGLVQAGGSLRLSSAASGFIFGKNDMGWYRQAPGKERELVAAITIGGSTNYADSVKGRFTISRDNAKNTVYLQLNSLKPEDTAVYYCAADSSSLYNYWGQGTQVTVSS | low polyreactivity
20 | QVQLVQSGGGLVQAGGSLRLSCAASGIIFYVYAMGWYRQAPGKERELVAAISRSGGRTYYADSVKGRFTISRDNPKNTVYLQMNSLKPEDTAVYYCAAVYPRQVSQVWRDDYWGQGTQVTVSS | high polyreactivity
21 | QVQLVESGGGLVQAGGSLRLSCAASGSIFTSYVMGWYRQAPGKERELVAAINSGGRTYYADSVKGRFTISRDNAKNTVYLQMNSLKPEDTAVYYCATDLLYYQYYSEYDYWGQGTQVTVSS | high polyreactivity

Row | Sequence | polyreactivity (PSR sort gate)
22 | QVQLVESGGGLVQAGGSLRLSCAASGFIFRPNAMGWYRQAPGKERELVAAITRDGDRTYYADSVKGRFTISRDNAKNTVYLQMNSLKPEETAVYYCAADVIQWWTRYYTWEYDYWGQGTQVTVSS | low polyreactivity
23 | QVQLVESGGGLVQAGGSLRLTCAASGRTFYINAMGWYRQAPGKERELVAAISSGGSTNYADSVKGRFTISRDNAKNTVSLQMNSLKPEDTAVYYCNARLRSFTLSDAEYEYWGQGTQVTVSS | low polyreactivity
24 | QVQLVESGGGLVQAGGSLRLSCAASGFNIGDYAMGWYRQAPGKERELVAAITISGGGTYYADSVKGRFTISRDNAKNTVYLQMNSLKPEDTAVYYCAAGYYDLNLDTDFGFDYWGQGTQVTVSS | low polyreactivity
25 | QVQLVESGGGLVQAGGSVRISCAASGRTFWYYAMGVYIQAPRKERELLAAITGRGGSTHYADSVKGRLTISRDNAKNTVYLPMISLKPEDTAVYYCAKDHYYRFPWGTGGYRGQGTQVTVSS | low polyreactivity
26 | QVQLVESGGGLVQAGGSLRVSCAASGSTCDVNAMGWYRQAPGKERELVAAMSWSDDATYYAYSVKGRFTISRDNAKNTVYVQMNSLKPEDTAVYYCAADGRYGWYYAVYNGEDYWGQGTQVTVSS | high polyreactivity
27 | QVQIVESGGGLVQAGGRLRLSCAYSGLIISWYAMGCDIQSPGKERELVAAISGSVGSTYYADPVKGRFTISRDNAKNTVYLQMNSLKPEDTAVYYCAARSKDGGGPMYYWGQGTQVTVSS | high polyreactivity
28 | QVHLVESGGGLVQAGGSLRLSCAASGRTFTRYTMGCYRQAPGKESELVAAISRRGGSTYYADSVKGRFTISRHNAKNTVYLQMNSLKPEDTAFYYCNADYVPGRPSFIYDYWGQGTQVTVSS | high polyreactivity
29 | QVQLVESGGGLVQAGGSLRLSCAASGLTFGYYAMGWYRQAPGKERELVAAISQSGGSTYYADSVKGRFTISRDNAKNTVYLQMNSLKPEDTAVYYCATRRYGYRYDQPYSNDYWGQGTQVTVSS | low polyreactivity
30 | QVQLVESGGGLVQAGGSLRLSCAASGSTFGYNAMGWYRPAPGKERELVAAISWNGGSTYYADSVKGRFTISRDNAKTTVYLQMNSLKPEDTAVYYCAAEHRGYFTRYDYWGQGTQVTVSS | low polyreactivity
31 | QVQLVESGGGLVQAGGSLRLSCAASGFTFYDNAMGWYRQAPGKERELVAAINWRSGSTYYADSVKGRFTISRDNAKNTVYLQMNSLKPEDTAVYYCAAGLVFHYYAPKSYYLGYDYWGQGTQVTVSS | low polyreactivity
32 | QVQLVESGGGLVQAGGSLRLSCAASGRTSRIYAMGLYRQAPGKERELVASISRRGGITYYADSVKGRFTISRDNAKTTVDFQMTSLKPEDTAVYYSASYYTNKVPARYYWGQGTEVTVSS | high polyreactivity
33 | QVQLVESGGGLVQAGGSIRLRCAASGITFYYYAMGWYRQAPAKERELVAAISRSGITYYADSVKGRFTISRDNAKNSVYLQMNSLKPEDTAVYYGAAGRRFDQSMYYGGQGTQVTVSS | high polyreactivity
34 | QVQLQESVGGLVLAGGSLRLICSASANISVYGTMGWYRKAPGKEREFVATIDPGTNTNYADSVKDRFTISRDNAKNTVYLQMNSLKPEDTAVYYCEVEGGSDWPYRYWGQGTQVTVSS | low polyreactivity
35 | QVQLVESGGGLVQAGGSLRLSCAASGSTFVKNAMGWYRQAPGKERELVAAISGRGGSTYYADSVKGRFTISRDNAKNTVYLQMNSLKPEDTAVYYCNKAYSVAYTYNYWGQGTQVTVSS | high polyreactivity
36 | QVQLVESGGGLVQAGGSLRLSCAASGRIFDLNAMGWYRQAPGKERELVATITRSGVSTYYADSVKGRFTISRDNAKNTVYLQLYSLKPEDTAVYYCAKDRYGWGYDYWGQGTQVTVSS | low polyreactivity
37 | QVQLVESGGGLVQAGGSLRLSCAASGSIFGPNAMGWYRQSPGKERELVAAISWGGGSTYYADSVKARITISRDNAINTVYLQMNILKPEDTGVYYCNASGYHDTAVRYDYWGQGTQVTVSS | low polyreactivity
38 | QVQLVESGGGLVQAGGSLRLSCAASGRILVRNAMGWYRQAPGKERELVAAIRRGTSTNYADSVKGRFTISRDNAKNTVYLQMNSLKPEDTAVYYCAVRAASPYLDGAWRRRYDYWGQGTQVTVSS | low polyreactivity
39 | QVQLVESGGGLVQAGGSLRLSCADSGRTFVGNAMGWSRQAPGKERELVAAITSRTGSTYYADSVKGRFTISRDNAKNTVYLQMTSLTPEDTAVYYCATPYYQNVYSRKAYTYWGQGTQVTVSS | high polyreactivity
40 | QVQLVESVVGLVQAGGSLRLSCAASVRTFVEYSMGWYRQAPGQERELVAAISSGGGSTYYADSVKGRFTISRDNAKNTVYLQMNSLKPEDTAVSYCATVGYRHRGWTSGYWGQGTQVTVSS | high polyreactivity
41 | QVQLVESGGGLVQARGSLRLSCAASGSTFQYTMGCYRQAPRTERELVAAITSTGGSTYYADSVKGRFTISRDNAKNTVYLQRNSLKAEDTAVYYWNADYFGGGDYWGQGTQVTVSS | low polyreactivity

Source: the nanobody polyreactivity screen of Harvey et al. (2022)
